Positions of bridges follow the written chain, without caps; N, C: chain ends. Non-standard residues stand in square brackets, D forms with d. p(HEMA-co-NHSMA) = copolymer of 2-hydroxyethyl methacrylate and N-hydroxysuccinimidyl ester methacrylate; Hyp = O=C(O)[C@@H]1C[C@@H](O)CN1
How the values were obtained:
[1] = target: T1, Fibrin (pure fibrin clots formed from fibrinogen and thrombin) (UniProt P02671 36-629; P02675 45-491; P02679 27-437, limits assumed); assay: cell-based or functional assay
T1 sequence (looked up) 1: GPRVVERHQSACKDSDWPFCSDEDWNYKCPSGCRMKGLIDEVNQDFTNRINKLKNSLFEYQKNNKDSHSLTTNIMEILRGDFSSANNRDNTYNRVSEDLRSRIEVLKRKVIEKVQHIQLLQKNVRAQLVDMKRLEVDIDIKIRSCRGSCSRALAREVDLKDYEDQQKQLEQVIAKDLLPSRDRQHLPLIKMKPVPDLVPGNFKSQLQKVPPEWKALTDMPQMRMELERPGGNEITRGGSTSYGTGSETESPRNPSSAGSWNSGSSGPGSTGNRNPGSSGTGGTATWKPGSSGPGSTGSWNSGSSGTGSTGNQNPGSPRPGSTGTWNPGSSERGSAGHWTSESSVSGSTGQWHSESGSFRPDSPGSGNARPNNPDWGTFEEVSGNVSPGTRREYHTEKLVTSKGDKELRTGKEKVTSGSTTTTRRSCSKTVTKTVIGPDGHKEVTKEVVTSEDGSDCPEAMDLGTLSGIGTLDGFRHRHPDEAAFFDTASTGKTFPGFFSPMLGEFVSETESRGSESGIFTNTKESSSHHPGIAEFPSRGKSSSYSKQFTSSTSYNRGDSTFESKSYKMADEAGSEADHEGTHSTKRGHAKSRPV
T1 sequence (looked up) 2: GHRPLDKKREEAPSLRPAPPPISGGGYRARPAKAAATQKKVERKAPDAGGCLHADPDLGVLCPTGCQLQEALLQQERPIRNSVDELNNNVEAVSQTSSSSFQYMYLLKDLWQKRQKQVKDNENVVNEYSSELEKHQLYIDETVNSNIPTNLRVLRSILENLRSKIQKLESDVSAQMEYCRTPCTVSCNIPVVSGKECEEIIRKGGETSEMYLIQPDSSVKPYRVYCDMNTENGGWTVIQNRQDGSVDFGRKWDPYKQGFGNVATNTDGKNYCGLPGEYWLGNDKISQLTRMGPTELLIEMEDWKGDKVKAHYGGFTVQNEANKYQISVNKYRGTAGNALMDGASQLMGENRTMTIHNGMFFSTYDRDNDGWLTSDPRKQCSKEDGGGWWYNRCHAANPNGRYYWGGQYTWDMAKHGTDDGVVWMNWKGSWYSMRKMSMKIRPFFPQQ
T1 sequence (looked up) 3: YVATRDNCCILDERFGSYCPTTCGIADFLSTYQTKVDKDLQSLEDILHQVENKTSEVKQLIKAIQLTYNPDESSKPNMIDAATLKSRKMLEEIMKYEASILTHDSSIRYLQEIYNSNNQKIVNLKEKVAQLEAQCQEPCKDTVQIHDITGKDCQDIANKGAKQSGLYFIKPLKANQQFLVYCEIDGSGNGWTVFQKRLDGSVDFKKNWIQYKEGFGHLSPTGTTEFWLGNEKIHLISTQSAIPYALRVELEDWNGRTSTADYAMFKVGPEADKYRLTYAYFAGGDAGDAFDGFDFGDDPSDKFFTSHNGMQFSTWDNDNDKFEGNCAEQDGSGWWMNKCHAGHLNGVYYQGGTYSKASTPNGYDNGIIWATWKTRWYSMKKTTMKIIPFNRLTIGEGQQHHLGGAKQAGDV

[2] = target: T2, Fibrin (pure fibrin clots formed from fibrinogen and thrombin), P02671
T2 chain 1: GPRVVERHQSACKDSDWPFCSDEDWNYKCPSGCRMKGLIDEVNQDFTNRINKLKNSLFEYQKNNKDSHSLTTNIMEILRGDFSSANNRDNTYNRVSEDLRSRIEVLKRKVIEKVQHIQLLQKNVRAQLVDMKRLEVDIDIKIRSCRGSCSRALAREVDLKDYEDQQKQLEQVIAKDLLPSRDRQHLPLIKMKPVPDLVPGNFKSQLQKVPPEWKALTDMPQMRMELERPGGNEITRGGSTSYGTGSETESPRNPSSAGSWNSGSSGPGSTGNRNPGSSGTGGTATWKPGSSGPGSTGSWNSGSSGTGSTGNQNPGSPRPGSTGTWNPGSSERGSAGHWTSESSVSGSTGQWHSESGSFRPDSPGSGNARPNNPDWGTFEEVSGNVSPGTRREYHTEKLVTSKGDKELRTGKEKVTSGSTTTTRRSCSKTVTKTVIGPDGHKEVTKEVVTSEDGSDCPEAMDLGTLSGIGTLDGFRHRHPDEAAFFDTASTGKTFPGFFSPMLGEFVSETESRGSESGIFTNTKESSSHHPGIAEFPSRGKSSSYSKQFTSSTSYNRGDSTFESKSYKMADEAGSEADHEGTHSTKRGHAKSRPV
T2 chain 2: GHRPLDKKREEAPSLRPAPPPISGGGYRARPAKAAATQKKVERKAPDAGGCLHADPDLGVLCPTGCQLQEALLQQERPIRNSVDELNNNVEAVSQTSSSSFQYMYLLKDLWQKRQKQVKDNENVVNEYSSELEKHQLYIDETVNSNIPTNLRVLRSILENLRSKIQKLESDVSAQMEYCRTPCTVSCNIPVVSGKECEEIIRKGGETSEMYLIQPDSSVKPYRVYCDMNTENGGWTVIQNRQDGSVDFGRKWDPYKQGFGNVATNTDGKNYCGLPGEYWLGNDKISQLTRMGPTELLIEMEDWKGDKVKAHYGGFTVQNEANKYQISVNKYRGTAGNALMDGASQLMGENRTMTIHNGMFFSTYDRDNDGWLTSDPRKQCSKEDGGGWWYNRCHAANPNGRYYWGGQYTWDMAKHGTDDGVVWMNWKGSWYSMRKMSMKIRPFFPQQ
T2 chain 3: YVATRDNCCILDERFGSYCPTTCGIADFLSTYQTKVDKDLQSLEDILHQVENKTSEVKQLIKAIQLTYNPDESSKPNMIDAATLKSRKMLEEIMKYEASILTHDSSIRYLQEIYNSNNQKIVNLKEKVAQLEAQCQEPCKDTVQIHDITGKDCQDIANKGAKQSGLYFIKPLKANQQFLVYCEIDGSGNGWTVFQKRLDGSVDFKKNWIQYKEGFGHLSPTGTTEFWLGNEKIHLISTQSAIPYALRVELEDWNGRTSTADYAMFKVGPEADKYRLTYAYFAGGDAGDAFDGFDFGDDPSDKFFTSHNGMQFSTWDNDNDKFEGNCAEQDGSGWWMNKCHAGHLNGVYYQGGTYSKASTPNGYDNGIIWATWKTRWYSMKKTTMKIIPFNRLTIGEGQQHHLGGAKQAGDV

Binder | clot strength (MA, TEG) relative to controls [1] | pore radius of fibrin clots (permeation study) [2]
Ac-Y[dE]C[Hyp]YGLCYIQGK(p(HEMA-co-NHSMA))-NH2 (other, disulfide 3-8; also: about 16 peptides grafted per polymer backbone) | 2.5 times | –
Human Factor XIIIa (HFXIIIa) (protein) GVNLQEFLNVTSVHLFKERWDTNKVDHHTDKYENNKLIVRRGQSFYVQIDFSRPYDPRRDLFRVEYVIGRYPQENKGTYIPVPIVSELQSGKWGAKIVMREDRSVRLSIQSSPKCIVGKFRMYVAVWTPYGVLRTSRNPETDTYILFNPWCEDDAVYLDNEKEREEYVLNDIGVIFYGEVNDIKTRSWSYGQFEDGILDTCLYVMDRAQMDLSGRGNPIKVSRVGSAMVNAKDDEGVLVGSWDNIYAYGVPPSAWTGSVDILLEYRSSENPVRYGQCWVFAGVFNTFLRCLGIPARIVTNYFSAHDNDANLQMDIFLEEDGNVNSKLTKDSVWNYHCWNEAWMTRPDLPVGFGGWQAVDSTPQENSDGMYRCGPASVQAIKHGHVCFQFDAPFVFAEVNSDLIYITAKKDGTHVVENVDATHIGKLIVTKQIGGDGMMDITDTYKFQEGQEEERLALETALMYGAKKPLNTEGVMKSRSNVDMDFEVENAVLGKDFKLSITFRNNSHNRYTITAYLSANITFYTGVPKAEFKKETFDVTLEPLSFKKEAVLIQAGEYMGQLLEQASLHFFVTARINETRDVLAKQKSTVLTIPEIIIKVRGTQVVGSDMTVTVEFTNPLKETLRNVWVHLDGPGVTRPMKKMFREIRPNSTVQWEEVCRPWVSGHRKLIASMSSDSLRHVYGELDVQIQRRPSM | – | 286±18 nm

— patent publication US20160263148A1 (University of Washington, published 2016)
